Values quoted from earlier work as cited in paper PMC12786138.
Several values for one entry are separate records, joined by “and”; a condition that tells them apart may be missing. Identical values can stand only once.

How the values were obtained:
[1] = biological target: SIRPα (Homo sapiens) (UniProt P78324); assay: SPR
[2] = biological target: SIRPα (Mus musculus) (UniProt P97797); assay: SPR
[3] = biological target: SIRPα (Homo sapiens) (UniProt P78324); assay: colorimetric
[4] = biological target: CD47 (Homo sapiens) (UniProt Q08722); assay: radiolabel competition
Chain of CD47 (Homo sapiens) (Q08722 19-323): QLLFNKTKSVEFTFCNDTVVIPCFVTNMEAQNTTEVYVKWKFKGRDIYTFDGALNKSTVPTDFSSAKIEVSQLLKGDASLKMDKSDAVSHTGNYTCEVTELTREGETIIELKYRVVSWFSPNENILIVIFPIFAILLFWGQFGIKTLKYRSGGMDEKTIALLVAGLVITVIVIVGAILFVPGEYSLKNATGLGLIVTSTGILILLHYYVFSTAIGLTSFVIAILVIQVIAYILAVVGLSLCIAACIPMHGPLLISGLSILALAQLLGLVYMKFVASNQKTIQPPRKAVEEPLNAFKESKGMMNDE

Chain of CD47 ECD (from UniProt Q08722) (Q08722 19-323): as above
Chain of SIRPα (Homo sapiens) (P78324 31-373): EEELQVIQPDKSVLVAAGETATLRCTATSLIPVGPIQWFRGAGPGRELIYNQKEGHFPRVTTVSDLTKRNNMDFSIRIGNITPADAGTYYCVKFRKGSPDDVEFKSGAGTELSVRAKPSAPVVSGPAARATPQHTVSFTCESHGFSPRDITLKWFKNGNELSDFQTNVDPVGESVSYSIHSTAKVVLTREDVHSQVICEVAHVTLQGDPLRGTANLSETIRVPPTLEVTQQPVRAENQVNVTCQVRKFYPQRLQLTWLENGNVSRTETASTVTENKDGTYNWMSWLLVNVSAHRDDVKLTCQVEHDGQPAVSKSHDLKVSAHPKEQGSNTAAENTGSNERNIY
Chain of SIRPα (Mus musculus) (P97797 32-373): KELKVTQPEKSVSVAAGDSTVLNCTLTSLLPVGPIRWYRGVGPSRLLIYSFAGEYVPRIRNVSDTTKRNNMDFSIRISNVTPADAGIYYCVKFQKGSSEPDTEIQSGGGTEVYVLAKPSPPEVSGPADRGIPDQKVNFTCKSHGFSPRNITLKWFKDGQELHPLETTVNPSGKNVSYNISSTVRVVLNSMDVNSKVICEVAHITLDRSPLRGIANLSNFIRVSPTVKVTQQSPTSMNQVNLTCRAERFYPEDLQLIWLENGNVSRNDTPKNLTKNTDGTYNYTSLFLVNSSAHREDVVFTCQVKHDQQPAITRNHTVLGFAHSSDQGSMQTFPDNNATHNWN
Chain of CD47 ECD (from UniProt Q61735) (Q61735 19-303): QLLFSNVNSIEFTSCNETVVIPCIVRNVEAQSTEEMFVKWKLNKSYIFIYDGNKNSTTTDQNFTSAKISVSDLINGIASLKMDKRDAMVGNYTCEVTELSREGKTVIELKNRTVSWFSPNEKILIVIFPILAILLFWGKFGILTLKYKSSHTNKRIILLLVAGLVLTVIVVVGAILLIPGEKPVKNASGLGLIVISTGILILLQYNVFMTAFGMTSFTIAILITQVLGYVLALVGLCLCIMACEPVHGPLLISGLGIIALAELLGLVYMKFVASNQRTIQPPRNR
Chain of CD47 ECD-alkaline phosphatase ECD (Q08722 19-323): as the sequence (Q08722 19-323) above
Chain of TSP1 (P07996 19-1170): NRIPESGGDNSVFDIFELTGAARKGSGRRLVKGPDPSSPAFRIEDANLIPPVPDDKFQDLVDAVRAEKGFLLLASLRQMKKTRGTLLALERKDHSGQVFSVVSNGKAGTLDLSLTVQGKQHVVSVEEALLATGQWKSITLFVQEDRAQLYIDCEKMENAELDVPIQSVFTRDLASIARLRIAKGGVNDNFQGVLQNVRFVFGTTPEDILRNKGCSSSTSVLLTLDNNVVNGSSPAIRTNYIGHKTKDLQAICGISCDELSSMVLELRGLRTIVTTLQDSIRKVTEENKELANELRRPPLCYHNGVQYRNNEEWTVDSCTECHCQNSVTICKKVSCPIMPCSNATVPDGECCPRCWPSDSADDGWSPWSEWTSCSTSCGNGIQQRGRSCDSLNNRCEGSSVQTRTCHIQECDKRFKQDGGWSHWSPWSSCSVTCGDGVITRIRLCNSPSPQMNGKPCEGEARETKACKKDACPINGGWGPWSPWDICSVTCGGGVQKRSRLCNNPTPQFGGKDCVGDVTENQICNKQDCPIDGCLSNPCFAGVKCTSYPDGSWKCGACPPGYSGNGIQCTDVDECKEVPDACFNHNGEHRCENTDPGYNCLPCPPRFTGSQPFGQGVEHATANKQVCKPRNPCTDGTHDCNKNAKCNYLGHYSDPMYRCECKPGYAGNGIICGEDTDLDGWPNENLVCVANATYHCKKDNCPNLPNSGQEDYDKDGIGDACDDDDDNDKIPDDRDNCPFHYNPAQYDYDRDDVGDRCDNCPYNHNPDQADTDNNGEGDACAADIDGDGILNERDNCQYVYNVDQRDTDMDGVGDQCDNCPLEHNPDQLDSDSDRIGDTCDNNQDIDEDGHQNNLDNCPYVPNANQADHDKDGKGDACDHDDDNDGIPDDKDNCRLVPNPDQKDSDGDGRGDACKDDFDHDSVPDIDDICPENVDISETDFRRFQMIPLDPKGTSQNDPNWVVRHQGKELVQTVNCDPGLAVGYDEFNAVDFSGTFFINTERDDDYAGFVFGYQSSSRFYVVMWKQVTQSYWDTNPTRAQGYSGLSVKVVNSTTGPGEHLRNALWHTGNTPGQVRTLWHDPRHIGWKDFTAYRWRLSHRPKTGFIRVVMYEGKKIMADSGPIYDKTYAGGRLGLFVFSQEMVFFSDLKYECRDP

Row | Kd [1] | Kd [2] | Kd [3] | Kd [4] | Substance
1 | 1200 nM and 1000 nM and 200 nM | 80 nM | – | – | CD47 ECD (from UniProt Q08722)
2 | > 30000 nM | 4700 nM | – | – | CD47 ECD (from UniProt Q61735)
3 | – | – | 10 nM | – | CD47 ECD-alkaline phosphatase ECD (from UniProt Q08722)
4 | – | – | – | 0.012 nM | TSP1 (from UniProt P07996)
